Details: Moniliophthora perniciosa, pH 7.2, Thermal, CD, sodium phosphate buffer 4mM, whole UniProt chain shown

B1: wild type, A5H7H0 (protein)
chain: MQLQNFLSIVLLVVSGAIAGTVMDHDKIAKLPASGSPLETKFQPQLHIGNGCHSYPAVDAQGNWSGGLKPTGAPSAACKDTSKAQTYVRSATFQGKTALVYAWYMPKDEISTGIGHRHDWEGAVVFLNSDTQQIDGVAASAHGKWRKYPNPGGANIDDTHVKLQYSAEPVINSHALDLTDKGGDLPTLASWEGMGADARAAINERSHWGDANPPIADSLIGSSLSGAWMW
EDTA CaCl2 62.5 micro M 120 micro M
  Tm: 41.6 °C
EDTA CaCl2 with ZnCl2 62.5 micro M 120 micro M 120 micro M
  Tm: 40 °C
EDTA ZnCl2 62.5 micro M 120 micro M
  Tm: 41.2 °C
